From IntAct's records for PubMed 26387864

B1: Calcium uptake protein 1, mitochondrial (Homo sapiens), Q9BPX6 (parent)
chain: MFRLNSLSALAELAVGSRWYHGGSQPIQIRRRLMMVAFLGASAVTASTGLLWKRAHAESPPCVDNLKSDIGDKGKNKDEGDVCNHEKKTADLAPHPEEKKKKRSGFRDRKVMEYENRIRAYSTPDKIFRYFATLKVISEPGEAEVFMTPEDFVRSITPNEKQPEHLGLDQYIIKRFDGKKISQEREKFADEGSIFYTLGECGLISFSDYIFLTTVLSTPQRNFEIAFKMFDLNGDGEVDMEEFEQVQSIIRSQTSMGMRHRDRPTTGNTLKSGLCSALTTYFFGADLKGKLTIKNFLEFQRKLQHDVLKLEFERHDPVDGRITERQFGGMLLAYSGVQSKKLTAMQRQLKKHFKEGKGLTFQEVENFFTFLKNINDVDTALSFYHMAGASLDKVTMQQVARTVAKVELSDHVCDVVFALFDCDGNGELSNKEFVSIMKQRLMRGLEKPKDMGFTRLMQAMWKCAQETAWDFALPKQ
partner: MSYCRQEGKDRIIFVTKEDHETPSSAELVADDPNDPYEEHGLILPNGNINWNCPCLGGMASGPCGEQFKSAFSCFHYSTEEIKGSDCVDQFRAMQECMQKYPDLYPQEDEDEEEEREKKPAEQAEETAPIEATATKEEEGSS
B2: Calcium uptake protein 1, mitochondrial (Homo sapiens), Q9BPX6 (parent)
chain: B1 chain
B3: Mitochondrial intermembrane space import and assembly protein 40 (Homo sapiens), Q8N4Q1 (parent)
chain: B1 partner

Variants of: B1
Details: with mia40_human CHCHD4, Q8N4Q1

effect of a mutation on the interaction | Variant
disrupting interaction strength | C463A

Variants of: B2
Details: with mcu_human MCU

effect of a mutation on the interaction | Variant
with no effect | C463S

Variants of: B3
Details: with micu1_human MICU1, Q9BPX6

effect of a mutation on the interaction | Variant
disrupting interaction strength | C4S;C53S;C55S
with no effect | C53S
disrupting interaction strength | C55S
